Laboratory results from patent US20050089521A1 (published 2005).

Molecular target: T1, human trkC (human, UniProt Q16288 32-429, limits assumed)
T1 construct: also called htrkC; trkC receptor
Assay: BIAcore analysis (SPR); format not stated

| Binder | Kd [nM] |
| --- | --- |
| mouse anti-trkC agonist monoclonal antibody 2256 (antibody, V domains shown) VH: QVQLQQPGAELVKPGASVKLSCKASGYTFTSYWMHWVKQRPGQGLEWIGEIYPSNGRTNYNEKFKSKATLTVDKSSSTAYMQLSSLTSEDSAVYYCARKYYYGNSYRSWYFDVWGAGTTLTVS VL: not shown | ~40 |
| humanized anti-trkC agonist antibody A5 (antibody, V domains shown, also called humanized monoclonal antibody A5) VH: QVQLVQSGAEVKKPGASVKVSCKASGYTFTSYRIHWVRQAPGQGLEWMGEIYPSNARTNYNEKFKSRVTMTRDTSTSTVYMELSSLRSEDTAVYYCARKYYYGNTRRSWYFDVWGQGTTVTVS VL: DIQMTQSPSSLSASVGDRVTITCRASESIDNYGISFLAWYQQKPGKAPKLLIYAASNRGSGVPSRFSGSGSGTDFTFTISSLQPEDIATYYCQQSKTVPRTFGQGTKLEIKR | ~0.28 |
